The record followed here is paper PMC9929602.

The target of the experiment is tetraspanin CD81 (human (endogenous in THP-1)) (UniProt P60033).
UniProt P60033, sequence (P60033 whole entry): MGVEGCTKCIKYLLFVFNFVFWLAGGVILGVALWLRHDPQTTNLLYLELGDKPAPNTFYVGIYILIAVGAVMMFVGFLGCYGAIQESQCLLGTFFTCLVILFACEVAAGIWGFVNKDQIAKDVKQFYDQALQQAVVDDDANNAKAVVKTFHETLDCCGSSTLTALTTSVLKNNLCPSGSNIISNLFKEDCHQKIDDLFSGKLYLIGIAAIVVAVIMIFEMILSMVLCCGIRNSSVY

With “AhpC-6×His (recombinant M. abscessus AhpC) (enzyme)”, the reduction of infectivity of Mab WT (CFU) in THP-1 cells pre-incubated with 2 μg soluble AhpC-His, against untreated cells or cells pre-incubated with Hsp16.7-His turned out to be 30%.
